Data from publication PMC7973117.

What was measured:
[1] = target: heteropentameric α1β mutated (α1βY240A) glycine receptor (rat) (UniProt P07727)
[2] = target: heteropentameric α1β wild type glycine receptor (rat) (UniProt P07727)

Substance: Interleukin-1β (from UniProt P01584 117-269) (ligand)
- current decay time constant (τ) of glycine (50 μM)-activated currents after perfusion of IL-1β (10 ng/ml); whole-cell patch clamp, transfected HEK293T cells (Figure 4A) [1]: 3370 ms
- current decay time constant (τ) of glycine (50 μM)-activated currents after perfusion of IL-1β (10 ng/ml); whole-cell patch clamp, transfected HEK293T cells (Figure 4A) [2]: 35400 ms
